Results taken from patent US20240319212A1, “METHOD OF MEASURING THE ENDOCYTIC VITAMIN D STATUS” (Immundiagnostik AG, priority 2018, published 2024).
pKd: −log10 of the molar value.

Legend:
[1] = molecular target: complex of vitamin D binding protein with 25-hydroxyvitamin D3 (DBP:25(OH)D3) (human) (UniProt P02774); experiment: MST, NT-647-labelled DBP (50 nM) with VD3 (50 nM), megalin fragment titrated
[2] = molecular target: vitamin D binding protein (DBP) alone, without added vitamin D metabolite (human) (UniProt P02774); experiment: MST, NT-647-labelled DBP (50 nM), megalin fragment titrated, absence of 25-OH vitamin D3; microscale thermophoresis; NT-647-labelled DBP, purified soluble M1 titrated 0.488-1000 nmol/L; absence of 25-OH vitamin D3
vitamin D binding protein (DBP) alone, without added vitamin D metabolite (human), sequence (P02774 17-474 limits assumed): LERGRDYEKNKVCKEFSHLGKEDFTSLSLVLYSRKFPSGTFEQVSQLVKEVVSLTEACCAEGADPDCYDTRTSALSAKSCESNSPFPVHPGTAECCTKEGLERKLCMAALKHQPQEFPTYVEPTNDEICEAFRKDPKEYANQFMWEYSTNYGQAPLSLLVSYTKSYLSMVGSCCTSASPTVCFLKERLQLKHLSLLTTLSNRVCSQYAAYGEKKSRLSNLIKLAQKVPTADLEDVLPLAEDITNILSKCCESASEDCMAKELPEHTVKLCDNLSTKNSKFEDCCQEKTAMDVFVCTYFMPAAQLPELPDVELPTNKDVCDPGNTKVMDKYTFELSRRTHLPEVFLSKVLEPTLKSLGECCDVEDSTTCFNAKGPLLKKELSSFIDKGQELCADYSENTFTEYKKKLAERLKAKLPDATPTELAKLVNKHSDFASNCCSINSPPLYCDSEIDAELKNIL

complex of vitamin D binding protein with 25-hydroxyvitamin D3 (DBP:25(OH)D3) (human), sequence (P02774 17-474 limits assumed, one chain of several): as the sequence (P02774 17-474 limits assumed) above

“soluble recombinant megalin M1 fragment (amino acids 26 to 386 of human LRP2/megalin, C-terminal 6x His tag) (from UniProt P98164 26-386) (receptor)” gave a pKd [1] of 7.34 and a pKd [2] of 6.35.
